Test results: patent US20070093443A1 (CATALYST BIOSCIENCES, published 2007)

Target: T1, alpha-2 macroglobulin (in human plasma) (human, UniProt P01023 24-1474)
T1 construct: Not purified: the endogenous protein of the plasma
T1 sequence (looked up): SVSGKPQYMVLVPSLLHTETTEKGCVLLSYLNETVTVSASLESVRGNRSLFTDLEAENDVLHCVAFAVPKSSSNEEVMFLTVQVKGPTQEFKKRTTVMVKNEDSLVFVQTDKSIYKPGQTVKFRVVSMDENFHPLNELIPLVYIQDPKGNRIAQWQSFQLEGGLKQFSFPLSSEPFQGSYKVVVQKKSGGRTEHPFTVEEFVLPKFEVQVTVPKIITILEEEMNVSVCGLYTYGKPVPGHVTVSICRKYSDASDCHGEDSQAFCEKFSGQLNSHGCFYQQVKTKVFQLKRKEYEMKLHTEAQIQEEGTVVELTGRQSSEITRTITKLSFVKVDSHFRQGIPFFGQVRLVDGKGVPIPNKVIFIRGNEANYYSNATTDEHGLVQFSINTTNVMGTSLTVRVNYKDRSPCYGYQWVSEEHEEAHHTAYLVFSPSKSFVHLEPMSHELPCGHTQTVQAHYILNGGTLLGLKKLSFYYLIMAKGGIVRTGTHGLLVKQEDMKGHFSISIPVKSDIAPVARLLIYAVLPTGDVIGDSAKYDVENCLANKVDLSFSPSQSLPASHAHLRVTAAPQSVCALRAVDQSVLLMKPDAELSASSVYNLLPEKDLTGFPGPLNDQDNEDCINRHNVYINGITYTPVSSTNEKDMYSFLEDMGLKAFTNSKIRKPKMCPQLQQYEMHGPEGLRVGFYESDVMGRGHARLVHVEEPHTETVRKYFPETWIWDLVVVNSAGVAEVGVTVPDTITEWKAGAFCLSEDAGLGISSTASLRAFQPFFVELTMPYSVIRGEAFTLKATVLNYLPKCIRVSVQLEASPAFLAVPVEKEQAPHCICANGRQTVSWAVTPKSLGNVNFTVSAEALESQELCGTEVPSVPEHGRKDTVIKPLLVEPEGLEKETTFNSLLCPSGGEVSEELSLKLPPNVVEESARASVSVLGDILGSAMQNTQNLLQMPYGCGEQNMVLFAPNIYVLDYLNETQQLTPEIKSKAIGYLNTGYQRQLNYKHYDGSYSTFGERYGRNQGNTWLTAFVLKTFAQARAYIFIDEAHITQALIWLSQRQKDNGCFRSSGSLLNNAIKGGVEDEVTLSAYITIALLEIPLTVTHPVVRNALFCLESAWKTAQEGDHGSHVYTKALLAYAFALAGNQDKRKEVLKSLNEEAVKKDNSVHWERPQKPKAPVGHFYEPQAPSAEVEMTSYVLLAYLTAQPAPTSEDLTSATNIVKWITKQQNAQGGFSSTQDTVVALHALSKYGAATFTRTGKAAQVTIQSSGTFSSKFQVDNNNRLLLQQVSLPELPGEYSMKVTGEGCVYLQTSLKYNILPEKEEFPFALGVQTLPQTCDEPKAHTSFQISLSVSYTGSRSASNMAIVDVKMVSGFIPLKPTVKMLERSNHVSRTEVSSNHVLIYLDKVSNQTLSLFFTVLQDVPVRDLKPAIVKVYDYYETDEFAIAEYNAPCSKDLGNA
Assay: Ac-RQAR-AMC activity of protease after 5 min in human citrated plasma, with and without M84R ecotin
Description: In addition, the percent protease unbound by alpha-2 macroglobulin (a2M) also was determined. Inactivation of a protease by alpha-2 macroglobulin traps the protease in a complex where it is still able to turn over small fluorescent substrates, but unable to access large protein substrates. This property of alpha-2 macroglobulin complicates the assessment of a proteases activity in plasma. To determine the actual activity of the free, uncomplexed protease in plasma, a two step measurement is required. First, the sample's activity on fluorescent substrates is measured. […] The percent unbound by alpha-2 macroglobulin activity is the percentage of the plasma residual activity that is inhibited by the addition of the ecotin. Briefly, in a 0.2 mL PCR tube, 1 μL 10× protease was mixed with 9 μL human plasma in citrate (Innovative Research). A uninhibted control also was prepeared containing 1 μL 10× protease mixed with 9 μL PBST. The mixtures were incubated for 5 minutes at 37° C. The samples were diluted 250 fold in PBST and stored on ice. Two 50 μL aliquots for each sample were transferred to an opaque assay plate (Costar #3694) containing 2 μL PBST or 2 μL 520 nM M84R ecotin. The plates were incubated 10 minutes at room temperature. Five microliters 0.4 mM Ac-RQAR-AMC substrate was added and the fluorescence was measured over time with a SpectraMax M5 spectrafluorometer (Molecular Devices) set to read every 20 seconds for 30 minutes at 30° C. (Ex: 380 nm, EM: 450 nm, Cut-off: 435 nm). The percent unbound by alpha-2 macroglobulin was calculated with the following formula: (1-([(Protease in plasma/Protease in PBST)−(Protease in plasma+ecotin/Protease in PBST)]/(Protease in plasma/Protease in PBST)))*100.

| Binder | % Unbound by a2M [%] |
| --- | --- |
| modified MT-SP1 CB483 (I41T/Y146D/G151L/Q175D/K224N) protease domain (enzyme) VVGGTDADEGEWPWQVSLHALGQGHTCGASLISPNWLVSAAHCYIDDRGFRYSDPTQWTAFLGLHDQSQRSAPGVQERRLKRIISHPFFNDFTFDYDIALLELEKPAEYSSMVRPICLPDASHVFPAGKAIWVTGWGHTQDGGTLALILQKGEIRVINQTTCENLLPQDITPRMMCVGFLSGGVDSCQGDSGGPLSSVEADGRIFQAGVVSWGDGCAQRNNPGVYTRLPLFRDWIKENTGV | 73 |
| modified MT-SP1 CB480 (I41T/Y146D/G151L/Q175D/K224F) protease domain (enzyme) VVGGTDADEGEWPWQVSLHALGQGHTCGASLISPNWLVSAAHCYIDDRGFRYSDPTQWTAFLGLHDQSQRSAPGVQERRLKRIISHPFFNDFTFDYDIALLELEKPAEYSSMVRPICLPDASHVFPAGKAIWVTGWGHTQDGGTLALILQKGEIRVINQTTCENLLPQDITPRMMCVGFLSGGVDSCQGDSGGPLSSVEADGRIFQAGVVSWGDGCAQRNFPGVYTRLPLFRDWIKENTGV | 88 |
| modified MT-SP1 CB487 (I41T/Y146E/G151L/Q175D/K224N) protease domain (enzyme) VVGGTDADEGEWPWQVSLHALGQGHTCGASLISPNWLVSAAHCYIDDRGFRYSDPTQWTAFLGLHDQSQRSAPGVQERRLKRIISHPFFNDFTFDYDIALLELEKPAEYSSMVRPICLPDASHVFPAGKAIWVTGWGHTQEGGTLALILQKGEIRVINQTTCENLLPQDITPRMMCVGFLSGGVDSCQGDSGGPLSSVEADGRIFQAGVVSWGDGCAQRNNPGVYTRLPLFRDWIKENTGV | 53 |
| modified MT-SP1 CB485 (I41T/Y146E/Q175D/K224L) protease domain (enzyme) VVGGTDADEGEWPWQVSLHALGQGHTCGASLISPNWLVSAAHCYIDDRGFRYSDPTQWTAFLGLHDQSQRSAPGVQERRLKRIISHPFFNDFTFDYDIALLELEKPAEYSSMVRPICLPDASHVFPAGKAIWVTGWGHTQEGGTGALILQKGEIRVINQTTCENLLPQDITPRMMCVGFLSGGVDSCQGDSGGPLSSVEADGRIFQAGVVSWGDGCAQRNLPGVYTRLPLFRDWIKENTGV | 82 |
| modified MT-SP1 CB481 (I41T/Y146D/G151L/Q175D/K224L) protease domain (enzyme) VVGGTDADEGEWPWQVSLHALGQGHTCGASLISPNWLVSAAHCYIDDRGFRYSDPTQWTAFLGLHDQSQRSAPGVQERRLKRIISHPFFNDFTFDYDIALLELEKPAEYSSMVRPICLPDASHVFPAGKAIWVTGWGHTQDGGTLALILQKGEIRVINQTTCENLLPQDITPRMMCVGFLSGGVDSCQGDSGGPLSSVEADGRIFQAGVVSWGDGCAQRNLPGVYTRLPLFRDWIKENTGV | 72 |
| modified MT-SP1 CB477 (I41T/Y146D/Q175D/K224R) protease domain (enzyme) VVGGTDADEGEWPWQVSLHALGQGHTCGASLISPNWLVSAAHCYIDDRGFRYSDPTQWTAFLGLHDQSQRSAPGVQERRLKRIISHPFFNDFTFDYDIALLELEKPAEYSSMVRPICLPDASHVFPAGKAIWVTGWGHTQDGGTGALILQKGEIRVINQTTCENLLPQDITPRMMCVGFLSGGVDSCQGDSGGPLSSVEADGRIFQAGVVSWGDGCAQRNRPGVYTRLPLFRDWIKENTGV | 67 |
| modified MT-SP1 CB488 (I41T/Y146E/G151L/Q175D/K224F) protease domain (enzyme) VVGGTDADEGEWPWQVSLHALGQGHTCGASLISPNWLVSAAHCYIDDRGFRYSDPTQWTAFLGLHDQSQRSAPGVQERRLKRIISHPFFNDFTFDYDIALLELEKPAEYSSMVRPICLPDASHVFPAGKAIWVTGWGHTQEGGTLALILQKGEIRVINQTTCENLLPQDITPRMMCVGFLSGGVDSCQGDSGGPLSSVEADGRIFQAGVVSWGDGCAQRNFPGVYTRLPLFRDWIKENTGV | 85 |
| modified MT-SP1 CB421 (I41T/Y146D/Q175D/K224F) protease domain (enzyme) VVGGTDADEGEWPWQVSLHALGQGHTCGASLISPNWLVSAAHCYIDDRGFRYSDPTQWTAFLGLHDQSQRSAPGVQERRLKRIISHPFFNDFTFDYDIALLELEKPAEYSSMVRPICLPDASHVFPAGKAIWVTGWGHTQDGGTGALILQKGEIRVINQTTCENLLPQDITPRMMCVGFLSGGVDSCQGDSGGPLSSVEADGRIFQAGVVSWGDGCAQRNFPGVYTRLPLFRDWIKENTGV | 84 |
| modified MT-SP1 CB482 (I41T/Y146D/G151L/Q175D/K224R) protease domain (enzyme) VVGGTDADEGEWPWQVSLHALGQGHTCGASLISPNWLVSAAHCYIDDRGFRYSDPTQWTAFLGLHDQSQRSAPGVQERRLKRIISHPFFNDFTFDYDIALLELEKPAEYSSMVRPICLPDASHVFPAGKAIWVTGWGHTQDGGTLALILQKGEIRVINQTTCENLLPQDITPRMMCVGFLSGGVDSCQGDSGGPLSSVEADGRIFQAGVVSWGDGCAQRNRPGVYTRLPLFRDWIKENTGV | 10 |
| modified MT-SP1 CB478 (I41T/Y146D/Q175D/K224N) protease domain (enzyme) VVGGTDADEGEWPWQVSLHALGQGHTCGASLISPNWLVSAAHCYIDDRGFRYSDPTQWTAFLGLHDQSQRSAPGVQERRLKRIISHPFFNDFTFDYDIALLELEKPAEYSSMVRPICLPDASHVFPAGKAIWVTGWGHTQDGGTGALILQKGEIRVINQTTCENLLPQDITPRMMCVGFLSGGVDSCQGDSGGPLSSVEADGRIFQAGVVSWGDGCAQRNNPGVYTRLPLFRDWIKENTGV | 89 |
| modified MT-SP1 CB486 (I41T/Y146E/Q175D/K224R) protease domain (enzyme) VVGGTDADEGEWPWQVSLHALGQGHTCGASLISPNWLVSAAHCYIDDRGFRYSDPTQWTAFLGLHDQSQRSAPGVQERRLKRIISHPFFNDFTFDYDIALLELEKPAEYSSMVRPICLPDASHVFPAGKAIWVTGWGHTQEGGTGALILQKGEIRVINQTTCENLLPQDITPRMMCVGFLSGGVDSCQGDSGGPLSSVEADGRIFQAGVVSWGDGCAQRNRPGVYTRLPLFRDWIKENTGV | 44 |
| modified MT-SP1 CB422 (I41T/Y146E/Q175D/K224N) protease domain (enzyme) VVGGTDADEGEWPWQVSLHALGQGHTCGASLISPNWLVSAAHCYIDDRGFRYSDPTQWTAFLGLHDQSQRSAPGVQERRLKRIISHPFFNDFTFDYDIALLELEKPAEYSSMVRPICLPDASHVFPAGKAIWVTGWGHTQEGGTGALILQKGEIRVINQTTCENLLPQDITPRMMCVGFLSGGVDSCQGDSGGPLSSVEADGRIFQAGVVSWGDGCAQRNNPGVYTRLPLFRDWIKENTGV | 83 |
| modified MT-SP1 CB476 (I41T/Y146D/Q175D/K224L) protease domain (enzyme) VVGGTDADEGEWPWQVSLHALGQGHTCGASLISPNWLVSAAHCYIDDRGFRYSDPTQWTAFLGLHDQSQRSAPGVQERRLKRIISHPFFNDFTFDYDIALLELEKPAEYSSMVRPICLPDASHVFPAGKAIWVTGWGHTQDGGTGALILQKGEIRVINQTTCENLLPQDITPRMMCVGFLSGGVDSCQGDSGGPLSSVEADGRIFQAGVVSWGDGCAQRNLPGVYTRLPLFRDWIKENTGV | 89 |
